Results published in article PMC10175261.

Assays:
[1] = molecular target: PriA;PriB C-term Arg44Ala LD (Escherichia coli;Escherichia coli, UniProt P17888;P07013 1-732;1-104+1-104, |R44A;internal_change); conditions: protein: recombinant;recombinant; tags: N-terminal His;; copies: 1;1; label: 5'-32P on 3L-98 (strand 2); fork 1:2 1:3; ssDNA lagging arm (strand 2)
[2] = molecular target: PriA;PriB N-term Arg44Ala LD (Escherichia coli;Escherichia coli, UniProt P17888;P07013 1-732;1-104+1-104, |R44A;internal_change); conditions: protein: recombinant;recombinant; tags: N-terminal His;; copies: 1;1; label: 5'-32P on 3L-98 (strand 2); fork 1:2 1:3; ssDNA lagging arm (strand 2)
PriA Thr482Ala = PriA Thr482Ala (Escherichia coli, UniProt P17888 1-732, T482A); conditions: protein: recombinant; tags: N-terminal His; label: 5'-32P on 3L-98 (strand 2); fork 1:2 1:3; ssDNA lagging arm (strand 2)
PriA CRR triple variant = PriA CRR triple variant (Escherichia coli, UniProt P17888 1-732, D438A;T482A;H483A); conditions: protein: recombinant; tags: N-terminal His; label: 5'-32P on 3L-98 (strand 2); fork 1:2 1:3; ssDNA lagging arm (strand 2)
PriA Asp438Ala = PriA Asp438Ala (Escherichia coli, UniProt P17888 1-732, D438A); conditions: protein: recombinant; tags: N-terminal His; label: 5'-32P on 3L-98 (strand 2); fork 1:2 1:3; ssDNA lagging arm (strand 2)
PriA His483Ala = PriA His483Ala (Escherichia coli, UniProt P17888 1-732, H483A); conditions: protein: recombinant; tags: N-terminal His; label: 5'-32P on 3L-98 (strand 2); fork 1:2 1:3; ssDNA lagging arm (strand 2)
PriA;PriB = PriA;PriB (Escherichia coli;Escherichia coli, UniProt P17888;P07013 1-732;1-104, |); conditions: protein: recombinant;recombinant; tags: N-terminal His;none; copies: 1;2; label: 5'-32P on 3L-98 (strand 2); fork 1:2 1:3; ssDNA lagging arm (strand 2)

B1: Fork 1 (structured_DNA)
DNA 1: GCAAGCCTTCTACAGGTCGACCGTCCATGGCGACTCGAGACCGCAATACGGATAAGGGCTGAGCACGCCGACGAACATTCACCACGCCAGACCACGTA
DNA 2: GACTATCTACGTCCGAGGCTCGCGCCGCAGACTCATTTAGCCCTTATCCGTATTGCGGTCTCGAGTCGCCATGGACGGTCGACCTGTAGAAGGCTTGC
DNA 3: TACGTGGTCTGGCGTGGTGAATGTTCGTCGGCGTGCTC
[1]
  binding result: binds
[2]
  binding result: binds
PriA Thr482Ala
  binding signal: 91.3 ± 6.5 % fork shifted
PriA CRR triple variant
  binding signal: 95.8 ± 3.1 % fork shifted
PriA Asp438Ala
  binding signal: 95 ± 1.9 % fork shifted
PriA His483Ala
  binding signal: 92.2 ± 3.7 % fork shifted
PriA;PriB
  binding result: binds
